Reference: PMC3564804
Read-outs that look alike come from different tables or passages of the source.

Assays:
[1] = molecular target: DS-PrPRes (Gdn-HCl treated PrPRes) (UniProt P04156)
[2] = molecular target: PrPRes, native state (UniProt P04156)

CTTACGGTGGGGCAATT [Apt1]
binding signal (fluorescence ratio) ([1]; 5'-NH2): 4.74
binding signal (fluorescence ratio) ([2]; 5'-NH2): 1.69

GTTTTGTTACAGTTCGTTTCTTTTCCCTGTCTTGTTTTGTTGTCT [Apt2]
binding signal (fluorescence ratio) ([1]; 5'-biotin): 4.74
binding signal (fluorescence ratio) ([2]; 5'-biotin): 1.69
